The target in this assay is GluA2 flip receptor, unedited at the pore site (Q-containing), wild type (UniProt P19491).
UniProt P19491, sequence (P19491 other isoform, or with tags, fused parts or gaps): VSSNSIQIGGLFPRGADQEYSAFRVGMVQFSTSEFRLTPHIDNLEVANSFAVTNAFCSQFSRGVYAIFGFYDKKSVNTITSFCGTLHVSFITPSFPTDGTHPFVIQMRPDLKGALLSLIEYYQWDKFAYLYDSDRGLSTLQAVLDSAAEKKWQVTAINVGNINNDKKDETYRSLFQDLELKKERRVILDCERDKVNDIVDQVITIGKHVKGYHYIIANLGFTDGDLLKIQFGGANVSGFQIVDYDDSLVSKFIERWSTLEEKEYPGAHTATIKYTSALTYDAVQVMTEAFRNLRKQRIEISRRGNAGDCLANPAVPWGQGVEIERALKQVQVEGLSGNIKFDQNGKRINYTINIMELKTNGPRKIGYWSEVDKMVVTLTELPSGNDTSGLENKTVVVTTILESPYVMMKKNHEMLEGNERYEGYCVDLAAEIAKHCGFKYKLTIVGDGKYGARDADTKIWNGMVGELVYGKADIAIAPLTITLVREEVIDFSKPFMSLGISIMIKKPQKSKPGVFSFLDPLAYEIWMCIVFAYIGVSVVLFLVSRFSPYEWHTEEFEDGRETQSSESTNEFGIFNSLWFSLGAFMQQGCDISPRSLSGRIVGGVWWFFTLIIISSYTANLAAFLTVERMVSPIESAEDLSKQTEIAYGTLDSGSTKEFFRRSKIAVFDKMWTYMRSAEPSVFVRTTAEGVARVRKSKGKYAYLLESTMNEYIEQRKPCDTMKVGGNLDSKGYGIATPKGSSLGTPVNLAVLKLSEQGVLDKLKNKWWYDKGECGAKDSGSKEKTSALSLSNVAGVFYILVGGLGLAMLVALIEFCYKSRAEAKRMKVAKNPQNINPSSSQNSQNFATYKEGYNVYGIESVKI

B1: TARP γ2 (Stargazin), mouse, wild type (natural protein)
chain: MGLFDRGVQMLLTTVGAFAAFSLMTIAVGTDYWLYSRGVCKTKSVSENETSKKNEEVMTHSGLWRTCCLEGNFKGLCKQIDHFPEDADYEADTAEYFLRAVRASSIFPILSVILLFMGGLCIAASEFYKTRHNIILSAGIFFVSAGLSNIIGIIVYISANAGDPSKSDSKKNSYSYGWSFYFGALSFIIAEMVGVLAVHMFIDRHKQLRATARATDYLQASAITRIPSYRYRYQRRSRSSSRSTEPSHSRDASPVGVKGFNTLPSTEISMYTLSRDPLKAATTPTATYNSDRDNSFLQVHNCIQKDSKDSLHANTANRRTTPV
The molecule B1 displayed a coupling energy of a thermodynamic cycle (γ2 wild type or L2 GS with GluA2 wild type or GAG/GSG), superactivation during 7 s of 10 mM glutamate of 1.08 kcal/mol.

Source of the values: paper PMC5599240.
